Where “and” joins values, the source holds several entries; their conditions need not be identical. Identical values can stand only once.
B1: Ribonuclease HI, P0A7Y4 (parent)
chain: MLKQVEIFTDGSCLGNPGPGGYGAILRYRGREKTFSAGYTRTTNNRMELMAAIVALEALKEHCEVILSTDSQYVRQGITQWIHNWKKRGWKTADKKPVKNVDLWQRLDAALGQHQIKWEWVKGHAGHPENERCDELARAAAMNPTLEDTGYQVEV
B2: Gamma-crystallin S, P22914 (parent)
chain: MSKTGTKITFYEDKNFQGRRYDCDCDCADFHTYLSRCNSIKVEGGTWAVYERPNFAGYMYILPQGEYPEYQRWMGLNDRLSSCRAVHLPSGGQYKIQIFEKGDFSGQMYETTEDCPSIMEQFHMREIHSCKVLEGVWIFYELPNYRGRQYLLDKKEYRKPIDWGAASPAVQSFRRIVE
B3: Subtilisin BPN', P00782 (parent)
chain: MRGKKVWISLLFALALIFTMAFGSTSSAQAAGKSNGEKKYIVGFKQTMSTMSAAKKKDVISEKGGKVQKQFKYVDAASATLNEKAVKELKKDPSVAYVEEDHVAHAYAQSVPYGVSQIKAPALHSQGYTGSNVKVAVIDSGIDSSHPDLKVAGGASMVPSETNPFQDNNSHGTHVAGTVAALNNSIGVLGVAPSASLYAVKVLGADGSGQYSWIINGIEWAIANNMDVINMSLGGPSGSAALKAAVDKAVASGVVVVAAAGNEGTSGSSSTVGYPGKYPSVIAVGAVDSSNQRASFSSVGPELDVMAPGVSIQSTLPGNKYGAYNGTSMASPHVAGAAALILSKHPNWTNTQVRSSLENTTTKLGDSFYYGKGLINVQAAAQ
B4: AP-4 complex subunit mu-1, O00189 (parent)
chain: MISQFFILSSKGDPLIYKDFRGDSGGRDVAELFYRKLTGLPGDESPVVMHHHGRHFIHIRHSGLYLVVTTSENVSPFSLLELLSRLATLLGDYCGSLGEGTISRNVALVYELLDEVLDYGYVQTTSTEMLRNFIQTEAVVSKPFSLFDLSSVGLFGAETQQSKVAPSSAASRPVLSSRSDQSQKNEVFLDVVERLSVLIASNGSLLKVDVQGEIRLKSFLPSGSEMRIGLTEEFCVGKSELRGYGPGIRVDEVSFHSSVNLDEFESHRILRLQPPQGELTVMRYQLSDDLPSPLPFRLFPSVQWDRGSGRLQVYLKLRCDLLSKSQALNVRLHLPLPRGVVSLSQELSSPEQKAELAEGALRWDLPRVQGGSQLSGLFQMDVPGPPGPPSHGLSTSASPLGLGPASLSFELPRHTCSGLQVRFLRLAFRPCGNANPHKWVRHLSHSDAYVIRI
B5: Triosephosphate isomerase, P00943 (parent)
chain: MRKPIIAGNWKMHKTLAEAVQFVEDVKGHVPPADEVISVVCAPFLFLDRLVQAADGTDLKIGAQTMHFADQGAYTGEVSPVMLKDLGVTYVILGHSERRQMFAETDETVNKKVLAAFTRGLIPIICCGESLEEREAGQTNAVVASQVEKALAGLTPEQVKQAVIAYEPIWAIGTGKSSTPEDANSVCGHIRSVVSRLFGPEAAEAIRIQYGGSVKPDNIRDFLAQQQIDGPLVGGASLEPASFLQLVEAGRHE
B6: Glypican-1, P35052 (parent)
chain: MELRARGWWLLCAAAALVACARGDPASKSRSCGEVRQIYGAKGFSLSDVPQAEISGEHLRICPQGYTCCTSEMEENLANRSHAELETALRDSSRVLQAMLATQLRSFDDHFQHLLNDSERTLQATFPGAFGELYTQNARAFRDLYSELRLYYRGANLHLEETLAEFWARLLERLFKQLHPQLLLPDDYLDCLGKQAEALRPFGEAPRELRLRATRAFVAARSFVQGLGVASDVVRKVAQVPLGPECSRAVMKLVYCAHCLGVPGARPCPDYCRNVLKGCLANQADLDAEWRNLLDSMVLITDKFWGTSGVESVIGSVHTWLAEAINALQDNRDTLTAKVIQGCGNPKVNPQGPGPEEKRRRGKLAPRERPPSGTLEKLVSEAKAQLRDVQDFWISLPGTLCSEKMALSTASDDRCWNGMARGRYLPEVMGDGLANQINNPEVEVDITKPDMTIRQQIMQLKIMTNRLRSAYNGNDVDFQDASDDGSGSGSGDGCLDDLCSRKVSRKSSSSRTPLTHALPGLSEQEGQKTSAASCPQPPTFLLPLLLFLALTVARPRWR
B7: Cyclin-dependent kinase inhibitor 2A, P42771 (parent)
chain: MEPAAGSSMEPSADWLATAAARGRVEEVRALLEAGALPNAPNSYGRRPIQVMMMGSARVAELLLLHGAEPNCADPATLTRPVHDAAREGFLDTLVVLHRAGARLDVRDAWGRLPVDLAEELGHRDVARYLRAAAGGTRGSNHARIDAAEGPSDIPD
B8: Triosephosphate isomerase, glycosomal, P04789 (parent)
chain: MSKPQPIAAANWKCNGSQQSLSELIDLFNSTSINHDVQCVVASTFVHLAMTKERLSHPKFVIAAQNAIAKSGAFTGEVSLPILKDFGVNWIVLGHSERRAYYGETNEIVADKVAAAVASGFMVIACIGETLQERESGRTAVVVLTQIAAIAKKLKKADWAKVVIAYEPVWAIGTGKVATPQQAQEAHALIRSWVSSKIGADVAGELRILYGGSVNGKNARTLYQQRDVNGFLVGGASLKPEFVDIIKATQ

Variants of: B1
Conditions: Escherichia coli (strain K12); pH 3; 50.1 °C; Thermal; CD; glycine-HCl 10 mM; NaCl 0.1 M; reversible: yes; structure 2RN2; whole UniProt chain shown

Row | Variant | ddG of mutation (higher = less stable)
1 | E119V | -0.09 kcal/mol
2 | R41C | -0.12 kcal/mol
3 | K117R | 0.06 kcal/mol

Same assay, conditions: Escherichia coli (strain K12); pH 5.5; 52.7 °C; Thermal; CD; Sodium acetate 20 mM; NaCl 0.1 M; reversible: yes; structure 2RN2; whole UniProt chain shown

Row | Variant | ddG of mutation (higher = less stable)
4 | E119V | -0.74 kcal/mol
5 | R41C | -0.44 kcal/mol
6 | K117R | -0.03 kcal/mol

Same assay, conditions: Escherichia coli (strain K12); pH 5.5; Thermal; CD; Sodium acetate 20 mM; NaCl 0.1 M; reversible: yes; structure 2RN2; whole UniProt chain shown

Row | Variant | Tm | change of melting temperature, mutant - wild type (higher = more stable) | unfolding enthalpy (van 't Hoff)
7 | E119V | 55.4 °C | 2.7 °C | 94.3 kcal/mol
8 | R41C | 54.3 °C | 1.6 °C | 102 kcal/mol

Same assay, conditions: Escherichia coli (strain K12); pH 3; Thermal; CD; glycine-HCl 10 mM; NaCl 0.1 M; reversible: yes; structure 2RN2; whole UniProt chain shown

Row | Variant | Tm | change of melting temperature, mutant - wild type (higher = more stable) | unfolding enthalpy (van 't Hoff)
9 | K117R | 49.9 °C | -0.2 °C | 97.1 kcal/mol

Variants of: B2
Conditions: Homo sapiens; pH 7.4; Thermal; Fluorescence; Disodium phosphate; NaCl; structure 6FD8; whole UniProt chain shown

Row | Variant | Tm | change of melting temperature, mutant - wild type (higher = more stable)
10 | S39C | 61.3 °C and 58.8 °C | -6.2 °C and -7 °C

Variants of: B3
Conditions: Bacillus amyloliquefaciens; pH 8; Thermal; DSC; Tris-HCl 50 mM; KCl 50 mM; structure 1SUP; whole UniProt chain shown

Row | Variant | Tm | change of melting temperature, mutant - wild type (higher = more stable)
11 | T129C | 56.4 °C | -2.5 °C
12 | T129C S194C | 62 °C | 3.1 °C
13 | S194C | 57.2 °C | -1.7 °C

Same assay, conditions: Bacillus amyloliquefaciens; pH 5; 20 °C; Thermal; DSC; Sodium acetate 100 mM; reversible: yes; structure 1SUP; whole UniProt chain shown

Row | Variant | ddG of mutation (higher = less stable) | unfolding free energy
14 | E62Q K87E | 1.3 kcal/mol | 0.8 kcal/mol
15 | K87E | 1 kcal/mol | 1.1 kcal/mol
16 | Q70L | 1.1 kcal/mol | 1 kcal/mol

Same assay, conditions: Bacillus amyloliquefaciens; pH 7.5; Thermal; fluorescence; Pipes 10 mM; transition: 2; structure 1AK9; whole UniProt chain shown

Row | Variant | Tm | change of melting temperature, mutant - wild type (higher = more stable) | unfolding enthalpy (calorimetric)
17 | T173M G209D | 56.3 °C | -0.5 °C | 72.8 kcal/mol

Same assay, conditions: Bacillus amyloliquefaciens; pH 9.63; Thermal; DSC; glycine 50 mM; reversible: yes; structure 1SUP; whole UniProt chain shown

Row | Variant | Tm | unfolding enthalpy (calorimetric) | unfolding enthalpy (van 't Hoff)
18 | M157F Y324K N325S S328C | 63.5 °C | 140 kcal/mol | 140 kcal/mol

Same assay, conditions: Bacillus amyloliquefaciens; pH 8; Thermal; DSC; Tris-HCl 50 mM; CaCl2 10 mM; reversible: no; structure 1SUP; whole UniProt chain shown

Row | Variant | Tm | change of melting temperature, mutant - wild type (higher = more stable)
19 | N325S | 80.7 °C | 2.4 °C

Variants of: B4
Conditions: Homo sapiens; pH 7.4; Thermal; DSC; structure 3L81; whole UniProt chain shown

Row | Variant | Tm | change of melting temperature, mutant - wild type (higher = more stable)
20 | R283D | 52.8 °C | -3 °C
21 | D190A | 50.9 °C | -4.9 °C

Variants of: B5
Conditions: Geobacillus stearothermophilus; pH 7.6; Thermal; DSC; TEA 100 mM; structure 1BTM; whole UniProt chain shown

Row | Variant | Tm | change of melting temperature, mutant - wild type (higher = more stable)
22 | K14G | 73 °C | -3 °C
23 | H13N K14G | 105 °C | –
24 | H13N | 77 °C | 1 °C

Variants of: B6
Conditions: Homo sapiens; pH 7; 20 °C; Urea; CD; Sodium Phosphate Buffer; transition: 2; structure 4ACR; whole UniProt chain shown

Row | Variant | denaturant midpoint (higher = more stable)
25 | N79Q N116Q | 5.37 M

Same assay, conditions: Homo sapiens; pH 7.4; Thermal; CD; Sodium Phosphate Buffer; reversible: no; structure 4ACR; whole UniProt chain shown

Row | Variant | Tm | change of melting temperature, mutant - wild type (higher = more stable)
26 | N79Q N116Q | 66 °C | -3 °C
27 | N79Q | 66 °C | 0 °C

Variants of: B7
Conditions: Homo sapiens; pH 7.5; 25 °C; Urea; CD; Sodium phosphate 15 mM; NaCl 100 mM; reversible: yes; structure 1A5E; whole UniProt chain shown

Row | Variant | denaturant m value | denaturant midpoint (higher = more stable)
28 | D74N | 1.2 kcal/mol/M | 1.4 M
29 | P81L | 1.1 kcal/mol/M | 3.4 M
30 | D84N | 2 kcal/mol/M | 1.8 M

Variants of: B8
Conditions: Trypanosoma brucei brucei; pH 7; Thermal; CD; 3-(N-morpholino)propanesulfonic acid/dithiothreitol 20 mM/0.02 mM; EDTA 0.02 mM; structure 3TIM; whole UniProt chain shown

Row | Variant | Tm
31 | R191S | 51.6 °C
32 | R191A | 47.3 °C
33 | D227N | 49.3 °C
34 | D227A | 48.7 °C

Same assay, conditions: Trypanosoma brucei brucei; pH 7; Thermal; CD; MOPS 20 mM; reversible: no; structure 1TPE; whole UniProt chain shown

Row | Variant | Tm | change of melting temperature, mutant - wild type (higher = more stable)
35 | T75R G76Q | 52 °C | -5 °C

Same assay, conditions: Trypanosoma brucei brucei; pH 7.4; Thermal; CD; MOPS 20 mM; EDTA 1 mM; reversible: no; structure 1TPE; whole UniProt chain shown

Row | Variant | Tm | change of melting temperature, mutant - wild type (higher = more stable)
36 | C14F | 46.5 °C | -4.9 °C

— FireProtDB
